# Laboratory results published in patent EP1161262B1 (University of Maryland, Baltimore, dated 2008).
# T1: colligin/Hsp47 of the murine Lewis Lung Carcinoma (LL/2) cell line (murine, UniProt P19324 18-417)
# T1 construct: whole, on cells; Endogenous protein of LL/2 cells
# T1 sequence (looked up): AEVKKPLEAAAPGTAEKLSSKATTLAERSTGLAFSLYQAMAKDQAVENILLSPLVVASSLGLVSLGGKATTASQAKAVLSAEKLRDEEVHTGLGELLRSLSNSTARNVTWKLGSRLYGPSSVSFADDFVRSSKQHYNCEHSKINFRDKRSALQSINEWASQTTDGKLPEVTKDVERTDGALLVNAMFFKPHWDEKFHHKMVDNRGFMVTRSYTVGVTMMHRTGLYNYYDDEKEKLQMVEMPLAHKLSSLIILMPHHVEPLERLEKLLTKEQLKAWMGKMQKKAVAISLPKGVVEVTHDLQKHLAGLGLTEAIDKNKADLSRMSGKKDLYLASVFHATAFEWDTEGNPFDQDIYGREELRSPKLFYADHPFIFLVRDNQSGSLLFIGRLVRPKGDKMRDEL
# T2: colligin/Hsp47 on the surface of human carcinoma cells (human, UniProt P50454 19-418)
# T2 construct: whole, on cells; Endogenous protein on cells or in plasma membrane preparations and lysates of surface-biotinylated human SCC cells; also called CBP2; colligin/CBP2/Hsp47
# T2 sequence (looked up): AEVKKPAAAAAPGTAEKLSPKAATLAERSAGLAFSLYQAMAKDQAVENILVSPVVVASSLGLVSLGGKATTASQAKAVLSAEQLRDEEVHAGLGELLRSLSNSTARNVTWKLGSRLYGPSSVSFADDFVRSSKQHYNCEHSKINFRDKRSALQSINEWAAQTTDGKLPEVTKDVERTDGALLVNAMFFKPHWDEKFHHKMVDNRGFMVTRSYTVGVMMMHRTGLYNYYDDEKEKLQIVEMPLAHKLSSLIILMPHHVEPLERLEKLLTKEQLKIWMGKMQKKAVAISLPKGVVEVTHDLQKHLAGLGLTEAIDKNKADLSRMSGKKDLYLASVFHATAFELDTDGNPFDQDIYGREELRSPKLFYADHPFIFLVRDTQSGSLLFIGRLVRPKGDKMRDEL
# Experiments:
# [1] = target: T1, colligin/Hsp47 of the murine Lewis Lung …; assay: DSP cross-linking of surface-labelled cells, immunoprecipitation with anti-CD81 mAbs
# [2] = target: T2, colligin/Hsp47 on the surface of human …; assay: as above
Binder,binding result [1],binding result [2]
"CD81 of murine LL/2 cells (other, UniProt P35762 1-236, looked up, whole, on cells) MGVEGCTKCIKYLLFVFNFVFWLAGGVILGVALWLRHDPQTTSLLYLELGNKPAPNTFYVGIYILIAVGAVMMFVGFLGCYGAIQESQCLLGTFFTCLVILFACEVAAGIWGFVNKDQIAKDVKQFYDQALQQAVMDDDANNAKAVVKTFHETLNCCGSNALTTLTTTILRNSLCPSGGNILTPLLQQDCHQKIDELFSGKLYLIGIAAIVVAVIMIFEMILSMVLCCGIRNSSVY",no binding,–
"CD81 of human SCC cells (other, UniProt P60033 1-236, looked up, whole, on cells) MGVEGCTKCIKYLLFVFNFVFWLAGGVILGVALWLRHDPQTTNLLYLELGDKPAPNTFYVGIYILIAVGAVMMFVGFLGCYGAIQESQCLLGTFFTCLVILFACEVAAGIWGFVNKDQIAKDVKQFYDQALQQAVVDDDANNAKAVVKTFHETLDCCGSSTLTALTTSVLKNNLCPSGSNIISNLFKEDCHQKIDDLFSGKLYLIGIAAIVVAVIMIFEMILSMVLCCGIRNSSVY",–,no binding
